Reference: paper PMC4272012 (Nature methods, 2014)
Numbering of substitutions follows the chain as printed.

B1: LaG-16 (VHH)
VHH: QVQLVESGGRLVQAGDSLRLSCAASGRTFSTSAMAWFRQAPGREREFVAAITWTVGNTILGDSVKGRFTISRDRAKNTVDLQMDNLEPEDTAVYYCSARSRGYVLSVLRSVDSYDYWGQGTQVTVS
B2: LaG-9 (VHH)
VHH: DVQLVESGGGLVQAGGSLRLSCAASGRTFSTSAMGWFRQAPGKEREFVARITWSAGYTAYSDSVKGRFTISRDKAKNTVYLQMNSLKPEDTAVYYCASRSAGYSSSLTRREDYAYWGQGTQVTVS
B3: LaG-26 (VHH)
VHH: QVQLVESGGGLVQAGASMRLSCAASGITFSLYHWVWFRQAAGREHEFVAGIIRSGGETLSADSVKDRFIISRDDAKNTLYLQMNMLQPEDTATYYCAATHRADWYSSAFREYIFRGQGTQVTVS
B4: LaG-19 (VHH)
VHH: QVQLVESGGGLVQAGGSLRLSCAASGPTGAMAWFRQAPGKEREFVGGISRSGTDTYYVDSVKGRFTIDRDNAKNTVYLQMNSLKPEDTAVYYCAARRSQILFTSRTDYEFWGQGTQVTV
B5: LaG-41 (VHH)
VHH: B4 VHH with Q1D, R50G, G52E, I67V, A72V, S98R, Q99I, I100T, E109D, Q113R
B6: LaG-21 (VHH)
VHH: QVQLVESGGGLVQAGGSLRLSCAASGPTGAMAWFRQAPGMEREFVGGISGSETDTYYADFVKGRLTVDRDNVKNTVDLQMNSLKPEDTAVYYCAARRRVTLFTSRADYDFWGQGTQVTVS
B7: LaG-43 (VHH)
VHH: DVQLVESGGGLVQPGGSLRLSCEASGGAFSTVAMGWFRQAPGKEREFVGAITWTAGSTYYADSAKGRFTISRDNAKNTVHLQMNSLKPEDTAVYYCAQRVRGFFGPLRTTPSWYEYWGQGTQVTVS
B8: LaG-17 (VHH)
VHH: DVQLVESGGGLVQAGGSLRLSCAASGRTISMAAMSWFRQAPGKEREFVAGISRSAGSAVHADSVKGRFTISRDNTKNTLYLQMNSLKAEDTAVYYCAVRTSGFFGSIPRTGTAFDYWGQGTQVTVS
B9: LaG-2 (VHH)
VHH: QVQLVESGGGLVQAGGSLRLSCAASGRTFSNYAMGWFRQAPGKEREFVAAISWTGVSTYYADSVKGRFTISRDNDKNTVYVQMNSLIPEDTAIYYCAAVRARSFSDTYSRVNEYDYWGQGTQVTV
B10: LaG-27 (VHH)
VHH: DVQLVESGGGLVQAGGSLRLSCTASGLTISTYNIGWFRQAPGKEREFVGIIIRNGDTTYYADSVKGRFTISRDNAKNTVYLQMNSVKPADAAVYSCGATVRAGAAAEQYNSYIFRGQGTQVTV
B11: LaG-14 (VHH)
VHH: QVQLVESGGGLVQAGGSLRLSCAASGRTYSISAMGWFRQAPGKEREFVAGISRSGGTTYYADPVKGRFTISRDNAKNTVYLQMNSLKPEDTAVYYCAARARGWTTFPAREIEYDYWGQGTQVTV

What follows are binders tested against GFPuv (Aequorea victoria, UniProt P42212, 15N-labeled).

Binding result, binds:
B1
B2
B3
B4
B5
B6
B7
B8
B9
B10
B11
